# Experiments:
# [1] = tested on: rat fast skeletal troponin I, alpha or monophosphorylated form
# [2] = tested on: rat fast skeletal troponin I, beta or diphosphorylated form
# Sequence of rat fast skeletal troponin I, beta or diphosphorylated form (chain, as listed by the source): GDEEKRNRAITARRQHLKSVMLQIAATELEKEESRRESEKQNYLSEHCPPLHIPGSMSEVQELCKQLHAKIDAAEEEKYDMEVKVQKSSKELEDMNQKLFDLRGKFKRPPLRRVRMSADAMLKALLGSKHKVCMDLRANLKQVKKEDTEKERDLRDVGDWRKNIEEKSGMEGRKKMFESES
# Sequence of rat fast skeletal troponin I, alpha or monophosphorylated form (chain, as listed by the source): as above
substance,measurement,setting,value
Protein phosphatase-1 (Sigma),dephosphorylation of myofibrils prior to 2-dimensional SDS-PAGE,[1],Neither form was evident in samples after dephosphorylation with PP-I
same,dephosphorylation of myofibrils prior to 2-dimensional SDS-PAGE,[2],Neither form was evident in samples after dephosphorylation with PP-I
